According to patent US20120207760A1 (THERACLONE SCIENCES, published 2012):

What was measured:
[1] = target: T1, hemagglutinin (HA) of influenza A/Solomon Islands/3/06 H1N1 (Influenza A virus A/Solomon …); experiment: cell-based or functional assay
[2] = target: T1, hemagglutinin (HA) of influenza …; experiment: ELISA, inactivated whole virions coated; transfection supernatant set 5
[3] = target: hemagglutinin (HA) of influenza A/Japan/305/57 H2N2 (Influenza A virus A/Japan/305/1957 …, UniProt P03451 16-562); experiment: as above

Binder | % Neutralization [1] | OD450 [2] | OD450 [3]
TCN-545 (5082_I15) (antibody, V domains shown) VH: QVQLQQWGAGLLKPSETLSLSCAVFGGSFSDYYWTWIRQPPGKGLEWIGEIKHSGRTNYNPSLESRVTISVDTSKNQFSLKLSSVTAADTAIYYCARGTDPDTEGYCRSGSCSAFDFWGQGTLVTVSS VL: EIVLTQSPGTLSLSPGERATLSCRASHFVNYRSLAWYQQTPGQVPRLLIYGASTRATGIPDRFSGSGSGTDFTLTISRLEPEDFAVYFCQQYGGSPRYTFGQGTRLEIK | 98% | 1.36 OD450 | 0.1 OD450
TCN-554 (5277_M05) (antibody, V domains shown) VH: QVQLVQSGADLKKPGASVKVSCKASGYTFTDYYIHWVRQAPGQGLEWMGWINPESGDTKYAQKFQGRVTMTRDTSITTAYMELGRLRSDDTAVYYCARDVSTTWSWFAPWGQGTLVTVSS VL: DIVMTQSPDSLAVSLGERATINCRSSQSIFHNSNNENYLAWYQQKPGQPPKLLIYWASTRESGVPDRFSGSGSGTDFTLTISSLQAEDVAVYFCQQYYNAPLTFGGGTKVEIK | 42% | 0.18 OD450 | 0.11 OD450
TCN-560 (5084_P10) (antibody, V domains shown) VH: EVQLVESGGGLVQPGGSLRLSCAASGFIFRNYWMSWVRQAPGKGLEWVANIKQDGREKYYVDSLRGRVNISRDNAENSLYLHMNSLRVEDTAVYFCARARMVVVTGDGFDVWGHGTMVTVSS VL: DIQMTQSPSSLSASVGDRVTITCRASQNIKRYFNWYQQKPGKAPKLLIYAASNLENGVPSRFSGSGSGTDFTLTISSLQPEDFATYYCQQSFSKSWTFGQGTNVDIK | 94% | 3.52 OD450 | 3.55 OD450
TCN-553 (5261_C18) (antibody, V domains shown) VH: QVQVVQSGTEVKKPGSSVKVSCQTSGGRFMSYAITWVRQAPGQGLEWMGGIVPVFGTANYAQKFQGRVTITTDDSTRTAYMELSSLRSEDTAVYYCGFRYGSGYGFDSWGQGTLVTVSS VL: EIVLTQSPGTLSLSPGERATLSCRASQSVSSSYLAWYQKKPGQAPRLLIYGASTRATGIPDRFTGSGSGTDFTLSISRLEPEDFAVYYCQHFGTSVFTFGGGTKVEIK | 87% | 3.56 OD450 | 3.28 OD450
TCN-552 (5249_I23) (antibody, V domains shown) VH: QVQVVQSGAEVKKPGSSVRVSCQASGGTFMNYAIIWVRRAPGQGLEWMGGIIPVFPTPNYAQMFQGRVTISTDESRSTSFLELTNLRYEDTAVYYCARRIYHGGNSGFDFWGQGTLVTVSS VL: EIVLTQSPATLSLSPGERATLSCRASQSVGNYLAWYQQKPGQAPRLLIYDSSNRAPGIPARFSGSGSGTDFTLTISSLAPEDFAVYYCQQRSKWPPMYSFGHGTKLEIK | 57% | 3.61 OD450 | 2.68 OD450
TCN-546 (5089_L08) (antibody, V domains shown) VH: QVQLQQWGAGLLKPSETLSLTCGVYGGSLSDYYWSWIRQPPGKGLEWIGEINHSGGTNYNPSLKRRVTISVDTSKKQFSLKMNSVTAADTAVYYCARGTDPDTEVYCRAGNCAAFDFWGQGTLVTVSS VL: EIVLTQSPGTLSLSPGERATLSCRASHFVIGRAVAWYQQKPGQAPRLLIYGASSRATGIPDRFSGSGSGTDFTLTISRLETEDFAVFYCQHYGSSPRYAFGQGTKLEIK | 0% | 3.67 OD450 | 0.07 OD450
TCN-555 (5246_L16) (antibody, V domains shown) VH: QVQLVQSGAEVKRPGSSVKVSCTASGGIFRKNAISWVRQAPGQGLEWMGGIIAVFNTANYAQKFQNRVKITADESGNTAYMELSSLTSDDTAVYYCASHPKYFYGSGSYPDFWGQGTLVTVSS VL: QSALTQPRSVSGSPGQSITISCTGGSSDIGASNSVSWYQQHPGKAPKLVIFDVTERPSGVPHRFSGSKSGNTASLTVSGLQPDDEADYFCCAYGGKYLVVFGGGTKVTVL | 48% | 3.57 OD450 | 2.1 OD450
